# Measurements published in IntAct's records for PubMed 12718882.
# B1: Splicing factor 1 (Homo sapiens), Q15637 (parent)
# chain: MATGANATPLDFPSKKRKRSRWNQDTMEQKTVIPGMPTVIPPGLTREQERAYIVQLQIEDLTRKLRTGDLGIPPNPEDRSPSPEPIYNSEGKRLNTREFRTRKKLEEERHNLITEMVALNPDFKPPADYKPPATRVSDKVMIPQDEYPEINFVGLLIGPRGNTLKNIEKECNAKIMIRGKGSVKEGKVGRKDGQMLPGEDEPLHALVTANTMENVKKAVEQIRNILKQGIETPEDQNDLRKMQLRELARLNGTLREDDNRILRPWQSSETRSITNTTVCTKCGGAGHIASDCKFQRPGDPQSAQDKARMDKEYLSLMAELGEAPVPASVGSTSGPATTPLASAPRPAAPANNPPPPSLMSTTQSRPPWMNSGPSESRPYHGMHGGGPGGPGGGPHSFPHPLPSLTGGHGGHPMQHNPNGPPPPWMQPPPPPMNQGPHPPGHHGPPPMDQYLGSTPVGSGVYRLHQGKGMMPPPPMGMMPPPPPPPSGQPPPPPSGPLPPWQQQQQQPPPPPPPSSSMASSTPLPWQQNTTTTTTSAGTGSIPPWQQQQAAAAASPGAPQMQGNPTMVPLPPGVQPPLPPGAPPPPPPPPPGSAGMMYAPPPPPPPPMDPSNFVTMMGMGVAGMPPFGMPPAPPPPPPQN
# B2: Splicing factor U2AF 65 kDa subunit (Homo sapiens), P26368 (parent)
# chain: MSDFDEFERQLNENKQERDKENRHRKRSHSRSRSRDRKRRSRSRDRRNRDQRSASRDRRRRSKPLTRGAKEEHGGLIRSPRHEKKKKVRKYWDVPPPGFEHITPMQYKAMQAAGQIPATALLPTMTPDGLAVTPTPVPVVGSQMTRQARRLYVGNIPFGITEEAMMDFFNAQMRLGGLTQAPGNPVLAVQINQDKNFAFLEFRSVDETTQAMAFDGIIFQGQSLKIRRPHDYQPLPGMSENPSVYVPGVVSTVVPDSAHKLFIGGLPNYLNDDQVKELLTSFGPLKAFNLVKDSATGLSKGYAFCEYVDINVTDQAIAGLNGMQLGDKKLLVQRASVGAKNATLVSPPSTINQTPVTLQVPGLMSSQVQMGGHPTEVLCLMNMVLPEELLDDEEYEEIVEDVRDECSKYGLVKSIEIPRPVDGVEVPGCGKIFVEFTSVFDCQKAMQGLTGRKFANRVVVTKYCDPDSYHRRDFW
# partner: B1 chain
# Variants of: B1
# Conditions: with U2AF2, P26368
row,Variant,effect of a mutation on the interaction
1,K15E,decreasing interaction
2,Q24A,with no effect
3,R17E,with no effect
4,N23A,with no effect
5,K16A;R17A;K18A,with no effect
6,K16E;R17D;K18E,disrupting interaction
7,R19E,with no effect
8,K15E;K16E;R17D,disrupting interaction
9,W22A,disrupting interaction
10,W22F,with no effect
11,R21K,with no effect
12,R21D,disrupting interaction

# Variants of: B2
# Conditions: with sf01_human SF1, Q15637
row,Variant,effect of a mutation on the interaction
1,E387R;E388R,disrupting interaction
2,E387G;E388A,with no effect

# Other lines, results leading:
row,effect of a mutation on the interaction,Variant
1,with no effect,E396A;E397A
2,disrupting interaction,E396K;E397K
3,disrupting interaction,E396G;E397A
4,disrupting interaction,D391R;D392R;E393K;E394K
5,decreasing interaction,F454Y
6,decreasing interaction,F454A
7,decreasing interaction,D391A;D392A;E393A;E394A
